Article PMC4866608 (Archives of biochemistry and biophysics, 2015)

Columns and labels:
[1] = molecular target: 2-hydroxymuconate semialdehyde dehydrogenase (NahI) from Pseudomonas putida G7, His-tag removed (GH-NahI) (Pseudomonas putida G7); assay: dynamic light scattering
[2] = molecular target: 2-hydroxymuconate semialdehyde dehydrogenase (NahI) from Pseudomonas putida G7, His-tag removed (GH-NahI) (Pseudomonas putida G7); assay: small-angle X-ray scattering
NahI (GH-NahI) = molecular target: T1, NahI (GH-NahI) (Pseudomonas putida, UniProt Q1XGK8); assay: CD thermal denaturation at […] nm; format: binding; settings: 50 mM sodium phosphate pH 7.4, 50 mM NaCl, 0.3 mg/mL protein; two-step denaturation
T1 sequence (Q1XGK8 1-486): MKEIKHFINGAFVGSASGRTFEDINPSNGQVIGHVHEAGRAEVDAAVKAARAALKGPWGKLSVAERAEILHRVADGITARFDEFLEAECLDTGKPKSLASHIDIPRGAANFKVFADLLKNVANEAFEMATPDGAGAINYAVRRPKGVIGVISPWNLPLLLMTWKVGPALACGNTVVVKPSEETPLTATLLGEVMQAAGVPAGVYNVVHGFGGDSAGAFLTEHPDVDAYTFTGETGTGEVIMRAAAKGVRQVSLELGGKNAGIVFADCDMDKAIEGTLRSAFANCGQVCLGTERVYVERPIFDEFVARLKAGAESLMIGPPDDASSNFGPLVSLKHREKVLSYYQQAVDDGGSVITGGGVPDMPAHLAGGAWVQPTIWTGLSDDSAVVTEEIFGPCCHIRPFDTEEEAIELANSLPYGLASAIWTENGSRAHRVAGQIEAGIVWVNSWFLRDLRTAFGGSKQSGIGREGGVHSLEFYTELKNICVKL

Molecule	stoichiometry N [1]	stoichiometry N [2]	second transition temperature of the NAD+ complex (apo enzyme 73.9 °C) (NahI (GH-NahI))
2-hydroxymuconate semialdehyde dehydrogenase (NahI) from Pseudomonas putida G7, His-tag removed (GH-NahI) (enzyme)	3	4	
NC(=O)c1ccc[n+]([C@@H]2O[C@H](COP(=O)(O)OP(=O)(O)OC[C@H]3O[C@@H](n4cnc5c(N)ncnc54)[C@H](O)[C@@H]3O)[C@@H](O)[C@H]2O)c1 [NAD^+]			76.7 °C
